Positions count from the first letter of the chain named.
T1: human B7-H4 on cells (human, UniProt Q7Z7D3 25-282)
T1 sequence (looked up): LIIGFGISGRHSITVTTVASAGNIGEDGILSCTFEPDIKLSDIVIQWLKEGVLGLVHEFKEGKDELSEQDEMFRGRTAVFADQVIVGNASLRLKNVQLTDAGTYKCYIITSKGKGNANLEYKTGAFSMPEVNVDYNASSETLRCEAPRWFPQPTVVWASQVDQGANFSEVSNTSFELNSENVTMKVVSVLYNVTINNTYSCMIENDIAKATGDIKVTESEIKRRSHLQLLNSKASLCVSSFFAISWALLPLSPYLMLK

T2: human B7-H4 extracellular domain (human, UniProt Q7Z7D3 29-258)
T2 construct: For SPR it says only human B7-H4 ECD; also called Hu B7-H4 ECD; huB7-H4 ECD
T2 sequence: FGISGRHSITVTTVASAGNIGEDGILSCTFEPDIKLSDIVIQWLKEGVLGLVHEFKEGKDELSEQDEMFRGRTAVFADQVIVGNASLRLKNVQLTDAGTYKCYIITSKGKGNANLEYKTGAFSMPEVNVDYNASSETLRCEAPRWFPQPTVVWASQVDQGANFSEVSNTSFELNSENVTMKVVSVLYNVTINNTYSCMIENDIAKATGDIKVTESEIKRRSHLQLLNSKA

B1: B7-H4xCD3 bispecific antibody 0982 (bispecific antibody, IgG2)
heavy 1: EVQLVESGGGLVQPGGSLRLSCAVSGGSFSGYYWNWIRQPPGKGLEWIGEIDHQGSTKYNPSLKSRVTISVDTAKNSLYLQMNSLRAEDTAVYYCARELYNWNVDHWGQGTLVTVSSASTKGPSVFPLAPCSRSTSESTAALGCLVKDYFPEPVTVSWNSGALTSGVHTFPAVLQSSGLYSLSSVVTVPSSNFGTQTYTCNVDHKPSNTKVDKTVERKCEVECPECPAPPVAGPSVFLFPPKPKDTLMISRTPEVTCVVVAVSHEDPEVQFNWYVDGVEVHNAKTKPREEQFNSTFRVVSVLTVVHQDWLNGKEYKCKVSNKGLPSSIEKTISKTKGQPREPQVYTLPPSREEMTKNQVSLTCEVKGFYPSDIAVEWESNGQPENNYKTTPPMLDSDGSFFLYSKLTVDKSRWQQGNVFSCSVMHEALHNHYTQKSLSLSPG
light 1: DIQMTQSPSSLSASVGDRVTITCRASQGIRNDLGWYQQKPGKAPKRLIYAASSLQSGVPSRFSGSGSGTDFTLTISSLQPEDFATYYCLQHSSYPRTFGGGTKVEIKRTVAAPSVFIFPPSDEQLKSGTASVVCLLNNFYPREAKVQWKVDNALQSGNSQESVTEQDSKDSTYSLSSTLTLSKADYEKHKVYACEVTHQGLSSPVTKSFNRGEC
heavy 2: EVQLVESGGGLVQPGGSLRLSCAASGFTFSDYYMTWVRQAPGKGLEWVAFIRNQARGYTSDHNPSVKGRFTISRDNAKNSLYLQMNSLRAEDTAVYYCARDRPSYYVLDYWGQGTTVTVSSASTKGPSVFPLAPCSRSTSESTAALGCLVKDYFPEPVTVSWNSGALTSGVHTFPAVLQSSGLYSLSSVVTVPSSNFGTQTYTCNVDHKPSNTKVDKTVERKCRVRCPRCPAPPVAGPSVFLFPPKPKDTLMISRTPEVTCVVVAVSHEDPEVQFNWYVDGVEVHNAKTKPREEQFNSTFRVVSVLTVVHQDWLNGKEYKCKVSNKGLPSSIEKTISKTKGQPREPQVYTLPPSREEMTKNQVSLTCLVKGFYPSDIAVEWESNGQPENNYKTTPPMLDSDGSFFLYSRLTVDKSRWQQGNVFSCSVMHEALHNHYTQKSLSLSPGK
light 2: DIQMTQSPSSLSASVGDRVTITCTSSQSLFNVRSQKNYLAWYQQKPGKAPKLLIYWASTRESGVPSRFSGSGSGTDFTLTISSLQPEDFATYYCKQSYDLFTFGGGTKVEIKRTVAAPSVFIFPPSDEQLKSGTASVVCLLNNFYPREAKVQWKVDNALQSGNSQESVTEQDSKDSTYSLSSTLTLSKADYEKHKVYACEVTHQGLSSPVTKSFNRGEC
B2: B7-H4 antibody 0048 (antibody, human IgG1, kappa, V domains shown)
VH: EVQLLESGGGLVQPGGSLRLSCAASGFTFSSYAMKWVRQAPGKGLEWVSTTSGSGGTTYYADSVKGRFTISRDNSKNTLYLQMNSLRAEDTAVYYCAKAGWAAAFDYWGQGTLVTVSS
VL: DIQLTQFPSTLSASVGDRITITCRASQSISDWLAWYQQKPGKAPKLLIYKASSLESGVPSRFSGSGSGTEFTLTISSLQPDDFATYYCQQCNSYWTFGQGTKVEIKR
notes: also called 11F12
B3: B7-H4 antibody 0057 (antibody, human IgG1, kappa, V domains shown)
VH: EVQLLESGGGLVQPGGSLRLSCAASGFTFSSYAMSWVRQAPGKGLEWVSAISGRGGSTYYTDSVKGRFTISRDNSRNTLYLQMNILRAEDTAVYYCARDLQWFGESTLFDYWGQGTLVTVSS
VL: DIQLTQSPSTLSASVGDRVTITCRASQSISAWLAWFQQKPGKAPKLLIYKASSLESGVPSRFSGSGSGTEFTLTISSLQPDDFATYYCQQYNSYSRSFGQGTKLEIKR
notes: also called 34A3
B4: B7-H4 antibody 0049 (antibody, human IgG1, kappa, V domains shown)
VH: EVQLLESGGGLVQPGGSLRLSCAASGFTFSSYAMSWVRQAPGKGLEWVSAISGSGGSTYYADSVKGRFTISRDNSKNTLFLHMNSLRAEDTAVYYCARDIQWFGESVFDYWGQGTLVTVSS
VL: B3 VL with L4M, A31S, F36Y, S65N, F83L, Q90Y, S97T, L104V
notes: also called 13F4
B5: B7-H4 antibody 0051 (antibody, human IgG1, kappa, V domains shown)
VH: EVQLLESGGGLVQPGGSLRLSCAASGFTFSSYAMSWVRQAPGKGLEWVSSISGNGGSTYYADSVKGRFTISRDNSKNTLSLQMNSLRAEDTAVYYCAKVGWRTGDYWGQGTLVTVSS
VL: B3 VL with A31S, F36Y, P40A, S53D, T69I, R96W, S97T, L104V
notes: also called 27C12

Target: T1, human B7-H4 on cells
Test: cell-based or functional assay

| Binder | T cell mediated tumor cell killing EC50, HCC1954-Luc [nM] |
| --- | --- |
| B1 | 2650 |

Target: T2, human B7-H4 extracellular domain
Test: SPR Biacore 8K 25 C; mAb captured on anti-human Fc, huB7-H4 ECD analyte, 1:1 fit;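 further: antibodies tested as IgG1, running buffer HBS-EP+ at pH 7.4, rate constants and affinity from a 1:1 Langmuir model fit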

| Kd [nM] | koff [s⁻¹] | kon [M⁻¹ s⁻¹] | Binder |
| --- | --- | --- | --- |
| 0.83 | 0.000619 | 745000 | B2 |
| 7.92 | 0.000508 | 64100 | B3 |
| 1.85 | 0.000414 | 225000 | B4 |
| 0.57 | 0.000464 | 814000 | B5 |

— US20220017622A1 (Pfizer, published 2022)
